From patent publication US7186408 (CAMBRIDGE UNIVERSITY TECHNICAL SERVICES, dated 2007)

What was measured:
[1] = target: vCD30-Fc (EV Hampstead vCD30 fused to the Fc fragment of human IgG1, baculovirus AcCD30-Fc, purified from Hi5 … (ectromelia virus, strain Hampstead; …)
[2] = target: T1, Recombinant mouse CD30-Fc (R&D Systems) (mouse, UniProt Q60846 19-281); experiment: Scatchard analysis (LIGAND), 2 ng mouse CD30 on protein A FlashPlate with increasing mouse 125I-CD30L
T1 construct: also called moCD30-Fc; not shown: Fc portion of the bought fusion protein
T1 sequence: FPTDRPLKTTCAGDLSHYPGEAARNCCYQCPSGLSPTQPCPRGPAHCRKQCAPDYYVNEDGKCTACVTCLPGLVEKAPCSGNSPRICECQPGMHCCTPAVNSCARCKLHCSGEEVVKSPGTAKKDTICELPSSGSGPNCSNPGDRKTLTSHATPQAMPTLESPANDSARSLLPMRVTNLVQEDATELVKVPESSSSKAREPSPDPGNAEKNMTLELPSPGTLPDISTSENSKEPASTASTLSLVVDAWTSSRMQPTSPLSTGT

[3] = target: T2, Human CD30 on K562 cells (human, UniProt P28908 19-595); experiment: flow cytometry on K562 cells
T2 construct: also called cell surface CD30; cellular receptors
T2 sequence: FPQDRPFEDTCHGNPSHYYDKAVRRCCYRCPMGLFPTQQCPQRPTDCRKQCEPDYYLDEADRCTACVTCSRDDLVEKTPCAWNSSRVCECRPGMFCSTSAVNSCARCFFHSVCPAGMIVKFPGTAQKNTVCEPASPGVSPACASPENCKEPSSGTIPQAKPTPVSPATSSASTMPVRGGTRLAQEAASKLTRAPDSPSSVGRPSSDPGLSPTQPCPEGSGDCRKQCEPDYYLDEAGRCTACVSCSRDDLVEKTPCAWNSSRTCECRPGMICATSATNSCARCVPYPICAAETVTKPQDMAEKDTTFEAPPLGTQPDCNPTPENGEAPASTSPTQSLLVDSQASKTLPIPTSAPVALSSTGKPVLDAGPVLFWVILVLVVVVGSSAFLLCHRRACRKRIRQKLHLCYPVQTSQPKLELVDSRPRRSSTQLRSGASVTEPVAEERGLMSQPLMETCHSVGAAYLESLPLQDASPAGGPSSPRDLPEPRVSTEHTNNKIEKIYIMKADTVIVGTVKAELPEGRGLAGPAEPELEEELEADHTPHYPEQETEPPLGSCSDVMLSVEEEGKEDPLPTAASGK

B1: Recombinant mouse CD30L (soluble, 6x histidine-tagged, R&D Systems) (ligand, UniProt P32972 68-239, looked up)
chain: QKKDSTPNTTEKAPLKGGNCSEDLFCTLKSTPSKKSWAYLQVSKHLNNTKLSWNEDGTIHGLIYQDGNLIVQFPGLYFIVCQLQFLVQCSNHSVDLTLQLLINSKIKKQTLVTVCESGVQSKNIYQNLSQFLLHYLQVNSTISVRVDNFQYVDTNTFPLDNVLSVFLYSSSD
notes: also called 125I-CD30L; mouse 125I-CD30L
For B1, the Kd [1] was 1 nM, the Kd [2] was 1 nM and the binding result [3] was “binds”.
